{
  "source": "paper PMC3525766",
  "about": "(Journal of structural biology, 2012)",
  "proteins": {"B1": {"name": "coiled-coil domain of human LRRFIP1 (LRRFIP1-CC) (domain or fragment)", "chain": "MDSLAEVEEKYKKAMVSNAQLDNEKTNFMYQVDTLKDMLLELEEQLAESRRQYEEKNKEFEREKHAHSILQFQFAEVKEALKQREEMLEK"}},
  "target": "the molecule itself",
  "experiment": "cross-linking",
  "data": [
    {"protein": "B1", "values": [
      {"measurement": "stoichiometry N", "value": 2}
    ]}
  ]
}
